Measurements published in paper PMC11946911.

Columns and labels:
[1] = target: EcZorA (ZorA of the Escherichia coli NCTC 9026 type I Zorya system, EcZorI) (Escherichia coli NCTC 9026); assay: cryo-EM structure
[2] = target: EcZorB (ZorB of the Escherichia coli NCTC 9026 type I Zorya system, EcZorI) (Escherichia coli NCTC 9026); assay: cryo-EM structure

stoichiometry N [1]	stoichiometry N [2]	Substance
5	–	EcZorA (ZorA of the Escherichia coli NCTC 9026 type I Zorya system, EcZorI) (natural protein)
–	2	EcZorB (ZorB of the Escherichia coli NCTC 9026 type I Zorya system, EcZorI) (natural protein)
